According to US20100040600A1, “Agents for Promoting the Growth of Hematopoietic Stem Cells” (CHUGAI SEIYAKU KABUSHIKI KAISHA, priority 2006, published 2010):

Columns and labels:
[1] = test system: human cord blood cells (CD34-positive cells); details: with or without TPO treatment; single administration; cited from earlier work
mouse bone marrow = details: TPO administered to TPO-knockout mice; cited from earlier work
[2] = test system: human cord blood-derived CD34-positive cells; assay: Engraftment number of different human blood cell lineages in bone marrow of mice transplanted with human cord blood-derived hematopoietic stem cells (Example 1); type: in vivo, NOD.CB17-Prkdc<scid>/J mice
Description: Engraftment of transplanted hematopoietic stem cells in the bone marrow is required in hematopoietic stem cell transplantation. The present invention provides agents which comprise an agonist for the TPO receptor (c-mpl) as an active ingredient for enhancing the engraftment of transplanted CD34-positive hematopoietic cells in the bone marrow. The engraftment of transplanted CD34-positive hematopoietic cells (CD34-positive hematopoietic stem cells and CD34-positive hematopoietic precursor cells) in the bone marrow can be promoted by administering the agents of the present invention. The presence or absence, or the degree of engraftment of transplanted CD34-positive hematopoietic cells in the bone marrow (the engraftment rate of transplanted CD34-positive hematopoietic cells in the bone marrow) can be assessed, for example, by determining the absolute number of human CD34-positive hematopoietic cells in the bone marrow of NOD/SCID mice to which human hematopoietic cells are transplanted. Human cells can be identified among the mouse bone marrow cells by using a fluorescent-labeled, human CD34-specific antibody for detection. Specifically, the engraftment rate of transplanted CD34-positive hematopoietic cells in the bone marrow can be determined by the following procedures. First, NOD.CB17-Prkdc/J mice, to which human cord blood-derived CD34-positive cells have been transplanted, are euthanized three weeks after transplantation. The right and left femurs are collected, and then their epiphyseal portions are removed by scissors. Bone marrow cells are flushed out using a 26G-needle syringe and collected. After washing with IMDM containing 2% FBS, 5 ml of erythrocyte lysis solution is added, and the mixture is allowed to stand for five minutes. The mixture is centrifuged and supernatant is removed. Then, the precipitate is suspended in 2 ml of IMDM containing 2% FBS. The suspension is filtered through a 70-μm membrane to prepare a bone marrow cell suspension (2 ml/two femurs for each mouse). The cell suspension is aliquoted into 100-μl samples, and the cells are stained for 15 minutes with a fluorescent-labeled, human CD34-specific antibody and PI (final concentration: 2 μg/ml). After washing, 50 μl of Flow-Count fluorescent particles are added, and the engraftment number of human CD34-positive cells is determined using the EPICS XL cell analyzer. The determination may be performed, for example, according to Application Note 5: “Determination of the absolute number of cells using Flow-Count” (Beckman Coulter, Inc.). Likewise, the absolute number of different human blood cell lineages in the bone marrow can be determined using a variety of detection antibodies. The absolute number of human cells contained in the two femurs is represented by the following formula:
Absolute number of human cells=determined value (cells/μl)×1/2(Flow-Count amount added (50)/sample amount added (100))×2000 (2 ml/two femurs/mouse)
Mice used were acclimatized six-week-old male NOD.CB17-Prkdc/J. After systemic irradiation with 3.0 Gy of X-ray, an anti-asialo-GM1 antibody was intraperitoneally administered to the mice once every ten days from the day of irradiation. 5×10^4 human cord blood-derived CD34-positive cells were transplanted to each mouse at the caudal vein one day after irradiation. From the day after transplantation, the sc(Fv)2 antibody of SEQ ID NO: 73 was administered every day for ten consecutive days, and after that, administration was conducted for five days followed by two days of break. The doses were: 0.25 mg/5 ml/kg in the morning, and 2 mg/5 ml/kg in the evening. The antibody was subcutaneously administered at eight-hour intervals, twice a day for three weeks in total (n=10). 20 mmol/l citric acid buffer containing 0.02% Tween 80 was administered as a vehicle in the same way as the sc(Fv)2 antibody of SEQ ID NO: 73. The bone marrow was collected after three weeks transplantation, and FACS analysis was performed using EPIX XL. […]

human CFU-Meg colonies = assay: Number of human CFU-Meg colonies in bone marrow of mice transplanted with human cord blood-derived hematopoietic stem cells (Example 2); type: in vivo, NOD.CB17-Prkdc<scid>/J mice; details: vs vehicle-administered group; s.c. 0.25 + 2 mg/kg per day, three weeks; bone marrow cells cultured 13 days in MegaCult-C; FIG. 2
Procedure: Mice used were acclimatized six-week-old male NOD.CB17-Prkdc/J. After systemic irradiation with 3.0 Gy of X-ray, an anti-asialo-GM1 antibody was intraperitoneally administered to the mice once every ten days from the day of irradiation. 5×10^4 human cord blood-derived CD34-positive cells were transplanted to each mouse at the caudal vein one day after irradiation. From the day after transplantation, the sc(Fv)2 antibody of SEQ ID NO: 73 was administered every day for ten consecutive days, and then after that, administration was conducted for five days followed by two days of break. The antibody was subcutaneously administered at 0.25 mg/5 ml/kg in the morning and 2 mg/5 ml/kg in the evening, at eight-hour intervals, twice a day for three weeks in total (n=10). 20 mmol/l citric acid buffer containing 0.02% Tween 80 was administered as a vehicle in the same way as the sc(Fv)2 antibody of SEQ ID NO: 73. Bone marrow cells were collected after three weeks transplantation. Bone marrow cells contained in the mouse femurs were cultured with the sc(Fv)2 antibody of SEQ ID NO: 73 for 13 days using MegaCult-C (StemCell Technologies). The number of human CFU-Meg colonies was determined by counting CD41-positive colonies containing 50 or more cells under a light microscope.

[3] = test system: human cord blood-derived CD34-positive cells; assay: Dose-dependent effect on engraftment number of different human blood cell lineages in bone marrow of transplanted mice (Example 3); type: in vivo, NOD.CB17-Prkdc<scid>/J mice; details: high, medium, low dose s.c. for ten days, FIG. 3
Procedure: Mice used were acclimatized six-week-old male NOD.CB17-Prkdc/J. After systemic irradiation with 3.0 Gy of X-ray, an anti-asialo-GM1 antibody was intraperitoneally administered to the mice on the day of irradiation and eight days after irradiation. 5×10^4 human cord blood-derived CD34-positive cells were transplanted to each mouse at the caudal vein the day after irradiation. The sc(Fv)2 antibody of SEQ ID NO: 73 was administered every day for ten consecutive days from the day after the irradiation, according to the following three dosages (subcutaneous administration; n=9 for each group).
High-dose group (0.25 mg/kg in the morning, an eight-hour interval, and 2 mg/kg in the evening, per day)
Medium-dose group (0.05 mg/kg in the morning, an eight-hour interval, and 0.2 mg/kg in the evening, per day)
Low-dose group (0.01 mg/kg in the morning, an eight-hour interval, and 0.02 mg/kg in the evening, per day)
The dose was adjusted so that the minimum drug concentration in peripheral blood during the administration period is 50 ng/ml, 10 ng/ml, or 2 ng/ml in the high-, medium-, or low-dose group, respectively.
20 mmol/l sodium citrate/150 mM NaCl buffer (pH 6.5) containing 0.02% Tween 80 was administered as a vehicle in the same way as the sc(Fv)2 antibody of SEQ ID NO: 73. Bone marrow cells were collected after two weeks transplantation, and FACS analysis was performed. The absolute number of human cells was determined using Flow-Count (Beckman).

[4] = vs vehicle group, s.c. 0.25 + 2 mg/kg per day, three weeks, FIG. 1
[5] = two weeks after transplantation
[6] = summary statement of the inventors' findings

Q: For “TPO: cytokine that promotes growth and differentiation of megakaryocytic lineage cells; ligand for c-mpl”, which “frequencies of CD34 positive cells” value [1] is on record?
A: did not differ significantly

Q: And the “mouse bone marrow transplantation efficiency” value (mouse bone marrow)?
A: increased

B1: sc(Fv)2 antibody of SEQ ID NO: 73: humanized sc(Fv)2 antibody comprising the amino acid sequence of SEQ ID NO: 73; c-mpl agonist (protein, listed as Homo sapiens)
chain: MDWTWRFLFVVAAATGVQSQVQLVQSGPEVKKPGASVKVSCKASGYTFTNSWMNWVRQRPGKGLEWIGRIYPGDGETIYNGKFRVRVTITADESTSTAYMQLSSLRSEDTAVYYCARGYDDYSFAYWGQGTTVTVSSGGGGSGGGGSGGGGSDIVMTQSPLSLPVTPGEPASISCRSSKSLLHSNGNTYLYWFLQKPGQSPQLLIYRMSNLASGVPDRFSGSGSGTDFTLKISRVEAEDVGVYYCMQHIEYPFTFGQGTKLEIKGGGGSGGGGSGGGGSQVQLVQSGPEVKKPGASVKVSCKASGYTFTNSWMNWVRQRPGKGLEWIGRIYPGDGETIYNGKFRVRVTITADESTSTAYMQLSSLRSEDTAVYYCARGYDDYSFAYWGQGTTVTVSSGGGGSGGGGSGGGGSDIVMTQSPLSLPVTPGEPASISCRSSKSLLHSNGNTYLYWFLQKPGQSPQLLIYRMSNLASGVPDRFSGSGSGTDFTLKISRVEAEDVGVYYCMQHIEYPFTFGQGTKLEIK
Q: For B1, which “number of human CD34-positive cells in right and left femurs” value ([2]; vs vehicle group, s.c. 0.25 mg/kg morning + 2 mg/kg evening, three weeks, bone marrow three weeks after transplantation, FIG. 1) is on record?
A: statistically significantly increased

Q: What about the “number of CD19-positive cells in right and left femurs” value [2, 4] of the same molecule?
A: statistically significantly increased

Q: What about the “number of CD33-positive cells in right and left femurs” value [2, 4] of the same molecule?
A: statistically significantly increased

Q: What about the “number of CD41-positive cells in right and left femurs” value [2, 4] of the same molecule?
A: statistically significantly increased

Q: And the “number of CD45-positive cells in right and left femurs” value [2, 4]?
A: statistically significantly increased

Q: What about the “number of CFU-Meg colonies in the bone marrow” value (human CFU-Meg colonies) of the same molecule?
A: statistically significantly increased

Q: And the “number of CD34-positive cells in right and left femurs” value ([3]; bone marrow two weeks after transplantation)?
A: increase in a dose-dependent manner

Q: What about the “number of CD19-positive cells in right and left femurs” value [3, 5] of the same molecule?
A: increase in a dose-dependent manner

Q: What about the “number of CD33-positive cells in right and left femurs” value [3, 5] of the same molecule?
A: increase in a dose-dependent manner

Q: What about the “number of CD38-positive cells in right and left femurs” value [3, 5] of the same molecule?
A: increase in a dose-dependent manner

Q: And the “number of CD41-positive cells in right and left femurs” value [3, 5]?
A: increase in a dose-dependent manner

Q: What about the “number of CD45-positive cells in right and left femurs” value [3, 5] of the same molecule?
A: increase in a dose-dependent manner

B2: VB22B sc(Fv)2: agonistic minibody against the TPO receptor; amino acid sequence of SEQ ID NO: 14 (protein, listed as Mus musculus)
chain: MEWPLIFLFLLSGTAGVHSQVQLQQSGPELVKPGASVKISCKASGYAFTNSWMNWVKQRPGKGLEWIGRIYPGDGETIYNGKFRVKATLTADKSSSTAYMDISSLTSEDSAVYFCARGYDDYSFAYWGQGTLVTVSAGGGGSGGGGSGGGGSDIVMTQAAPSIPVTPGESVSISCRSSKSLLHSNGNTYLYWFLQRPGQSPQLLIYRMSNLASGVPDRFSGSGSGTAFTLRISRVEAEDVGVYYCMQHIEYPFTFGSGTKLEIKGGGGSGGGGSGGGGSQVQLQQSGPELVKPGASVKISCKASGYAFTNSWMNWVKQRPGKGLEWIGRIYPGDGETIYNGKFRVKATLTADKSSSTAYMDISSLTSEDSAVYFCARGYDDYSFAYWGQGTLVTVSAGGGGSGGGGSGGGGSDIVMTQAAPSIPVTPGESVSISCRSSKSLLHSNGNTYLYWFLQRPGQSPQLLIYRMSNLASGVPDRFSGSGSGTAFTLRISRVEAEDVGVYYCMQHIEYPFTFGSGTKLEIK
Q: Which “engraftment of transplanted human cord blood-derived hematopoietic stem cells (CD34-positive hematopoietic cells) in the bone marrow” value [2, 6] does the source give for B2 here?
A: enhanced the engraftment

Q: And the “growth of multilineage blood precursor cells” value [2, 6]?
A: induced significant growth

Q: What about the “human megakaryocyte-specific differentiation (increase of megakaryocytic cells)” value [2, 6] of the same molecule?
A: induced human megakaryocyte-specific differentiation
